The record followed here is patent US20240024479A1, “NK CELLS OR T CELLS EXPRESSING CHIMERIC HEMATOPOIETIC GROWTH FACTOR RECEPTORS AND METHODS OF USE” (The United States of America, as represented by the …, priority 2020, published 2024).

In data set [1] the test system is c-MPL transduced NK cells. Briefly: Proliferation of c-MPL-expressing human NK cells with thrombopoietin mimetics. The note with it: 4-5 days culture. The data set is classed as cell-based. The protocol:
FIGS. 16A-16C show proliferation of human NK cells transduced to express GFP and c-MPL cultured for 4-5 days with the indicated concentrations of thrombopoietin (FIG. 16A), romiplostim (FIG. 16B), or eltrombopag (FIG. 16C). […] Mean and SEM of results from 3 blood donors are shown.
NK cells from PBMC from three blood donors were stimulated and transduced to express GFP and c-MPL, then were cultured for 4-5 days with thrombopoietin, romiplostim, or eltrombopag.

For data set [2], the system named is NK cells transduced to express MPL or MPL-IL2RB chimeric receptors. Briefly: Phospho-STAT5 and phospho-S6 signaling in transduced NK cells. The class given is cell-based, human.
Data set [3] deals with human thrombopoietin receptor (c-MPL) expressed on transduced NK or T cells (human) (UniProt P40238). In words: cell-based or functional assay.
Data set [4] has as its system primary human NK cells. Briefly: Chimeric MPL-IL2RB constructs (lentiviral) in primary human NK cells, cell numbers with MPL ligands. The class given is cell-based. The note with it: after 4 days; medium lacking cytokines; lentiviral vectors. The text has this: (§1) Lentiviral and retroviral vectors expressing MPL-IL2RB and other chimeric MPL receptors: Lentiviral vectors were created by Vectorbuilder (IL, USA) by insertion of DNA sequences encoding EGFP and chimeric molecules including extracellular, transmembrane, and in some cases, proximal intracellular regions of human MPL (NM_005373.3) fused with partial intracellular domains from human IL2RB (NM_000878.5) using the linkages as shown in FIG. 17. Certain of these chimeric receptor sequences were also inserted into a gamma retroviral vector backbone also encoding EGFP or firefly luciferase. Analogous vectors encoding unmodified MPL (NM_005373.3) were used for comparison. […]
(§2) In vitro cell culture experiments with human NK cells expressing MPL-IL2RB: Approximately 2-4 days after transduction, NK cells were placed in culture with varied concentrations of eltrombopag (Selleckchem, TX, USA) or romiplostim (Amgen, CA, USA); where concentrations are not indicated, 0.33 ug/mL eltrombopag or 1.5 ng/mL romiplostim were used. […] Numbers of GFP^+ cells were quantitated after 4-6 days (or indicated durations) using a BD Fortessa flow cytometer (BD Biosciences, NJ, USA) and compared with initial numbers to determine the fold expansion.

Another data set deals with K562 target cells. Briefly: Degranulation and cytokine production of NK cells expressing MPL-IL2RB or MPL with K562 targets. The class given is cell-based, human. The settings on record: for degranulation of cytotoxic granules in response to K562 target cells: 4-day exposure to eltrombopag or romiplostim; for production of IFN-gamma and TNF: culture with eltrombopag or romiplostim and exposure to K562 targets. How it is done: To examine degranulation, cells were washed after two hours and stained with anti-CD107a (H4A3) (BioLegend). To assay cytokine production, GolgiPlug and GolgiStop (BD Biosciences) were added at manufacturer's recommended concentrations within the first hour of co-culture with K562. After 4 hours, cells were washed and stained for cell surface markers, then stained intracellularly with mAb recognizing TNF-α (Mab 11) and IFN-γ (B27) (BD Biosciences).
(§3) In vitro cell culture experiments with human NK cells expressing MPL-IL2RB: Approximately 2-4 days after transduction, NK cells were placed in culture with varied concentrations of eltrombopag (Selleckchem, TX, USA) or romiplostim (Amgen, CA, USA); where concentrations are not indicated, 0.33 ug/mL eltrombopag or 1.5 ng/mL romiplostim were used. Medium and drugs were refreshed by addition of new medium or by changing half the culture volumes every 2-4 days. Numbers of GFP^+ cells were quantitated after 4-6 days (or indicated durations) using a BD Fortessa flow cytometer (BD Biosciences, NJ, USA) and compared with initial numbers to determine the fold expansion.

In a further data set the test system is Human NK cells. In words: Matrix of IL-2 and eltrombopag concentrations, NK cell numbers after 6 days. The data set is classed as cell-based. The note with it: for proliferation in the presence of eltrombopag at high IL-2 concentrations compared with IL-2 alone: 6 days. How it is done:
as §3

Data set [5] has as its system primary human NK cells. In words: Time course of survival/proliferation of NK cells expressing MPL-IL2RB (retroviral). The data set is classed as cell-based. The settings on record: varied concentrations of eltrombopag, romiplostim or thrombopoietin; retroviral vectors.
Source text: as §1, §2

For romiplostim, the “proliferation of c-MPL transduced NK cells” value in data set [1] is listed as “induce proliferation”. Moreover, the “phosphorylated ribosomal protein S6 responses (mTOR activation)” value in data set [2] (NK cells expressing either MPL-IL2RB or MPL) is on record as “induced”. Also, the “phosphorylated STAT5” value in data set [2] (eltrombopag 0.33 μg/ml or romiplostim 1.5 ng/mL, compared with 5 U/mL IL-2) is “shorter dilution pSTAT5 response”.
Regarding “recombinant human thrombopoietin (rhTPO) (from UniProt P40225 22-353) (ligand)”, in data set [3], the Bcl-2 RMFI in c-MPL+ NK-92 cells with TPO came out at 64.5 RMFI; the Bcl-xL RMFI in c-MPL+ NK-92 cells with TPO came to 4.52 RMFI; the CD107a degranulation of GFP+ MPL+ primary NK cells against K562, TPO plus 25 U/ml IL-2 is 83%; the GFP fold-expansion of c-MPL transduced primary T cells, TPO alone, day 6 turned out to be 5.96 fold. In data set [3], the average percentage of GFP+ MPL+ cells among recovered human cells in blood and spleen of TPO-treated NSG mice (about 10% injected) stood at 15%; the average percentage of GFP+ MPL+ cells among recovered human cells in liver and lung of TPO-treated NSG mice (about 10% injected) came out at 20%; the expansion of c-MPL+ activated T cells, TPO plus LD IL-2, day 6 lay within 6 to 11.4 fold; the fold change of GFP+ c-MPL+ primary NK cells, TPO plus 10 U/ml IL-2, day 6 turned out to be 24.3 fold. Moreover, in data set [3], the fold change of GFP+ c-MPL+ primary NK cells, TPO plus 25 U/ml IL-2, day 6 came to 34.1 fold; the fold expansion of c-MPL+ NK-92 cells with TPO alone, day 8 was 7 fold; the fold expansion of c-MPL+ NK-92 cells, TPO plus 1 U/ml IL-2, day 8 is 23.2 fold; the mean percentage of dead Raji cells, c-MPL+ NK-92 cells exposed to TPO plus LD IL-2, E:T 1:1 amounted to 84%. In data set [3], the mean percentage of dead Raji cells, c-MPL+ NK-92 cells exposed to TPO plus LD IL-2, E:T 10:1 amounted to 85%; the pS6 expression (RMFI) in c-MPL+ NK-92 cells, TPO plus LD IL-2 was 11.8 RMFI; the percentage of GFP+ MPL+ cells in parallel in vitro cultures of the mixed cells with only TPO amounted to 31%.

B1: MPL: unmodified human MPL (NM_005373.3), SEQ ID NO: 1, expressed in NK cells for comparison (protein, listed as Homo sapiens)
chain: MPSWALFMVTSCLLLAPQNLAQVSSQDVSLLASDSEPLKCFSRTFEDLTCFWDEEEAAPSGTYQLLYAYPREKPRACPLSSQSMPHFGTRYVCQFPDQEEVRLFFPLHLWVKNVFLNQTRTQRVLFVDSVGLPAPPSIIKAMGGSQPGELQISWEEPAPEISDFLRYELRYGPRDPKNSTGPTVIQLIATETCCPALQRPHSASALDQSPCAQPTMPWQDGPKQTSPSREASALTAEGGSCLISGLQPGNSYWLQLRSEPDGISLGGSWGSWSLPVTVDLPGDAVALGLQCFTLDLKNVTCQWQQQDHASSQGFFYHSRARCCPRDRYPIWENCEEEEKTNPGLQTPQFSRCHFKSRNDSIIHILVEVTTAPGTVHSYLGSPFWIHQAVRLPTPNLHWREISSGHLELEWQHPSSWAAQETCYQLRYTGEGHQDWKVLEPPLGARGGTLELRPRSRYRLQLRARLNGPTYQGPWSSWSDPTRVETATETAWISLVTALHLVLGLSAVLGLLLLRWQFPAHYRRLRHALWPSLPDLHRVLGQYLRDTAALSPPKATVSDTCEEVEPSLLEILPKSSERTPLPLCSSQAQMDYRRLQPSCLGTMPLSVCPPMAESGSCCTTHIANHSYLPLSYWQQP
On to B1, for which the “NK cell numbers in presence of eltrombopag or romiplostim” value in the data set with primary human NK cells [4] was “greater cell numbers”. Further, in the data set on K562 target cells, the “degranulation of cytotoxic granules in response to K562 target cells” value is reported as “augmented degranulation”; the “production of IFN-gamma and TNF” value is “augmented production”. In addition, the “proliferation in the presence of eltrombopag at high IL-2 concentrations compared with IL-2 alone” value with Human NK cells is given as “deficit in proliferation”.

B2: MPL-IL2RB: chimeric receptor, SEQ ID NO: 8 (amino acids 1-582, c-MPL; amino acids 583-801, IL2RB) (protein)
chain: MPSWALFMVTSCLLLAPQNLAQVSSQDVSLLASDSEPLKCFSRTFEDLTCFWDEEEAAPSGTYQLLYAYPREKPRACPLSSQSMPHFGTRYVCQFPDQEEVRLFFPLHLWVKNVFLNQTRTQRVLFVDSVGLPAPPSIIKAMGGSQPGELQISWEEPAPEISDFLRYELRYGPRDPKNSTGPTVIQLIATETCCPALQRPHSASALDQSPCAQPTMPWQDGPKQTSPSREASALTAEGGSCLISGLQPGNSYWLQLRSEPDGISLGGSWGSWSLPVTVDLPGDAVALGLQCFTLDLKNVTCQWQQQDHASSQGFFYHSRARCCPRDRYPIWENCEEEEKTNPGLQTPQFSRCHFKSRNDSIIHILVEVTTAPGTVHSYLGSPFWIHQAVRLPTPNLHWREISSGHLELEWQHPSSWAAQETCYQLRYTGEGHQDWKVLEPPLGARGGTLELRPRSRYRLQLRARLNGPTYQGPWSSWSDPTRVETATETAWISLVTALHLVLGLSAVLGLLLLRWQFPAHYRRLRHALWPSLPDLHRVLGQYLRDTAALSPPKATVSDTCEEVEPSLLEILPKSSERTPLPLVTQLLLQQDKVPEPASLSSNHSLTSCFTNQGYFFFHLPDALEIEACQVYFTYDPYSEEDPDEGVAGAPTGSSPQPLQPLSGEDDAYCTFPSRDDLLLFSPSLLGGPSPPSTAPGGSGAGEERMPPSLQERVPRDWDPQPLGPPTPGVPDLVDFQPPPELVLREAGEEVPDAGPREGVSFPWSRPPGQGEFRALNARLPLNTDAYLSLQELQGQDPTHLV
Consider B2, for which the “NK cell numbers in presence of eltrombopag or romiplostim” value with primary human NK cells [4] is reported as “greater cell numbers than MPL-expressing NK cells”. The “fold change in cell numbers” value in the data set on primary human NK cells [5] is “greater fold change in cell numbers”. Further, in the data set on K562 target cells, the “degranulation of cytotoxic granules in response to K562 target cells” value is recorded as “augmented degranulation”; the “production of IFN-gamma and TNF” value was “augmented production”. In addition, the “intracellular signals (pSTAT5, pS6) induced via receptor” value in data set [2] (compared with MPL) is “comparable to those triggered by MPL”. The “proliferation in the presence of eltrombopag at high IL-2 concentrations compared with IL-2 alone” value with Human NK cells is given as “comparable numbers”. Besides, the “NK cell numbers after 6 days” value in the data set on Human NK cells (low concentrations of IL-2, with eltrombopag) is listed as “greater numbers”.
